Test results: patent publication US6716960B2, “Mch3, a novel apoptotic protease, nucleic acids encoding and methods of use” (Idun Pharmaceuticals, Inc., priority 1995, dated 2004)
Like-named read-outs stand apart in the source and are kept apart here.

Columns and labels:
Mch3α = biological target: T1, Mch3α (Homo sapiens, UniProt P55210); assay: Continuous fluorometric assay of recombinant Mch3α with DEVD-AMC substrate; assay type: biochemical
T1 construct: This assay employs Mch3 polypeptide expressed in an active, processed form recombinantly in E. coli; becomes active following proteolytic cleavage into two subunits of approximately 17 kD (p17) and 12 kD (p12); GST (N, cleaved yes); made in house; host or cells: E. coli (DH5α), pGEX-2T; bacterial lysates
T1 sequence (P55210 24-198 limits assumed): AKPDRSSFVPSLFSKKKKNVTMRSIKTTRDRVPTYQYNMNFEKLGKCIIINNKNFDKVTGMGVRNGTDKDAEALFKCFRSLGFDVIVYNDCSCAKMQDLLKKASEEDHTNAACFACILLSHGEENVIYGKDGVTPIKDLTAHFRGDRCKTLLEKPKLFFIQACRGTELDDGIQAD
T1 sequence (P55210 207-303 limits assumed): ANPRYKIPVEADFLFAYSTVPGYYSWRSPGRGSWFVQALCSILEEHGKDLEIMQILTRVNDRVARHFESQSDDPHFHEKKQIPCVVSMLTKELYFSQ
Procedure: The kinetic properties of the bacterially expressed recombinant Mch3α and CPP32 were determined using the tetrapeptide substate DEVD-AMC in a continuous fluorometric assay. The DEVD-AMC substrate is the poly(ADP-ribose)polymerase (PARP) cleavage site P1-P4 tetrapeptide (Nicholson et al., Nature 376:37-43 (1995)). Briefly, activity of Mch3α and CPP32 was measured using bacterial lysates in ICE buffer (25 mM HEPES, 1 mM EDTA, 5 mM DTT, 0.10% CHAPS, 10% sucrose, pH 7.5) at room temperature (24-25° C.).

CPP32 [1] = biological target: T2, CPP32 (Homo sapiens, UniProt P42574); assay: Continuous fluorometric assay of recombinant CPP32 with DEVD-AMC substrate; assay type: biochemical; conditions: for Km: recombinant CPP32, bacterial lysate, ICE buffer pH 7.5, 24-25° C., substrate = label
T2 construct: CPP32 is cleaved at Asp28 and Asp175 to generate two polypeptides of molecular masses of 17 kDa (p17) and 12 kDa (p12); GST (N, cleaved yes); made in house; host or cells: E. coli; bacterial lysates
T2 sequence (P42574 29-175 limits assumed): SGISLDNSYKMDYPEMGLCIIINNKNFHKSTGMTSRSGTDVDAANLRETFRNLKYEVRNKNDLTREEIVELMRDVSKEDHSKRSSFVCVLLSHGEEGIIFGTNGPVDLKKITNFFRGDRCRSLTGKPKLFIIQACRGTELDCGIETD
T2 sequence (P42574 176-277 limits assumed): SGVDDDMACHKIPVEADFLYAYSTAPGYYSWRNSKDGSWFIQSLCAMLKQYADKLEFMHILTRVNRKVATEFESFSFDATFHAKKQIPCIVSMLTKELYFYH

CPP32 [2] = biological target: T2, CPP32; conditions: purified human CPP32, reported by Nicholson et al.; cited from earlier work
Sf9 cells = assay: Induction of apoptosis in Sf9 cells infected with recombinant baculoviruses; conditions: for Induction of apoptosis: expressed separately in Sf9 cells

Work on `CC(=O)N[C@@H](CC(=O)O)C(=O)N[C@@H](CCC(=O)O)C(=O)N[C@H](C(=O)N[C@H](C=O)CC(=O)O)C(C)C` [DEVDaldehyde, DEVD-CHO] yielded a Ki (Mch3α) of 0.0018 µM.

Molecule `CC(=O)N[C@@H](Cc1ccc(O)cc1)C(=O)N[C@H](C(=O)N[C@@H](C)C(=O)N[C@H](C=O)CC(=O)O)C(C)C` [YVADaldehyde, YVAD-CHO] has a Ki (CPP32 [1]) of 8.5 µM and a Ki (Mch3α) greater than 10 µM.

For DEVD-AMC [DEVDamc], the Km (CPP32 [1]) is listed as 13 µM, the Km (Mch3α; bacterial lysate, ICE buffer pH 7.5, 24-25° C., substrate = label) is listed as 51 µM and the Km (CPP32 [2]) is listed as 9.7 ± 1 µM.

With “YVADamc: YVAD tetrapeptide amc substrate listed in Table I” the Km (CPP32 [1]) was greater than 500 µM.

B1: truncated Mch3α (amino acids 199-303): truncated Mch3α that encodes only the p12 subunit (protein)
chain: SGPINDTDANPRYKIPVEADFLFAYSTVPGYYSWRSPGRGSWFVQALCSILEEHGKDLEIMQILTRVNDRVARHFESQSDDPHFHEKKQIPCVVSMLTKELYFSQ
For B1, the Induction of apoptosis (Sf9 cells) was “unable to induce apoptosis”.

B2: truncated Mch3α (amino acids 1-198): truncated Mch3α that encodes only the p20 subunit (protein)
chain: MADDQGCIEEQGVEDSANEDSVDAKPDRSSFVPSLFSKKKKNVTMRSIKTTRDRVPTYQYNMNFEKLGKCIIINNKNFDKVTGMGVRNGTDKDAEALFKCFRSLGFDVIVYNDCSCAKMQDLLKKASEEDHTNAACFACILLSHGEENVIYGKDGVTPIKDLTAHFRGDRCKTLLEKPKLFFIQACRGTELDDGIQAD
With B2 the Induction of apoptosis (Sf9 cells) was “unable to induce apoptosis”.

B3: Mch3α: full length apoptotic cysteine protease, 303 amino acids (SEQ ID NO: 2), expressed from recombinant baculovirus (protein)
chain: MADDQGCIEEQGVEDSANEDSVDAKPDRSSFVPSLFSKKKKNVTMRSIKTTRDRVPTYQYNMNFEKLGKCIIINNKNFDKVTGMGVRNGTDKDAEALFKCFRSLGFDVIVYNDCSCAKMQDLLKKASEEDHTNAACFACILLSHGEENVIYGKDGVTPIKDLTAHFRGDRCKTLLEKPKLFFIQACRGTELDDGIQADSGPINDTDANPRYKIPVEADFLFAYSTVPGYYSWRSPGRGSWFVQALCSILEEHGKDLEIMQILTRVNDRVARHFESQSDDPHFHEKKQIPCVVSMLTKELYFSQ
For B3, the Cells undergoing apoptosis (Sf9 cells; expression in Sf9 cells, 42-48 h postinfection) was “approximately 50%”.
